Laboratory results as given in US20190345206A1 (MOMENTA PHARMACEUTICALS, published 2019).
Substitutions are numbered along the chain they refer to. Numbers in names are those of the source.

B1: Fc construct 18 (other)
chain 1: DKTHTCPPCPAPELLGGPSVFLFPPKPKDTLMASRTPEVTCVVVDVSHEDPEVKFNWYVDGVEVHNAKTKPPEEQYNSTYRVVSVLTVLHQDWLNGKEYKCKVSNKALPAPIEKTISKAKGQPREPQVYTLPPCRDKLTKNQVSLWCLVKGFYPSDIAVEWESNGQPENNYKTTPPVLDSDGSFFLYSKLTVDKSRWQQGNVFSCSVMHEALHNHYTQKSLSLSPGKGGGGGGGGGGGGGGGGGGGGDKTHTCPPCPAPELLGGPSVFLFPPKPKDTLMISRTPEVTCVVVDVSHEDPEVKFNWYVDGVEVHNAKTKPPEEQYNSTYRVVSVLTVLHQDWLNGKEYKCKVSNKALPAPIEKTISKAKGQPREPQVYTLPPSRDELTKNQVSLTCLVKGFYPSDIAVEWESNGQPENNYKTTPPVLKSDGSFFLYSDLTVDKSRWQQGNVFSCSVMHEALHNHYTQKSLSLSPG
chain 2: DKTHTCPPCPAPELLGGPSVFLFPPKPKDTLMASRTPEVTCVVVDVSHEDPEVKFNWYVDGVEVHNAKTKPPEEQYNSTYRVVSVLTVLHQDWLNGKEYKCKVSNKALPAPIEKTISKAKGQPREPQVCTLPPSRDELTKNQVSLSCAVDGFYPSDIAVEWESNGQPENNYKTTPPVLDSDGSFFLVSKLTVDKSRWQQGNVFSCSVMHEALHNHYTQKSLSLSPG
notes: Construct 4 with R292P in all three Fc domains and I253A in the two N-terminal Fc domains; also called Q1
B2: Fc construct 19 (other)
chain 1: B1 chain 1 with I280A
chain 2: B1 chain 2
notes: Construct 4 with R292P and I253A in all three Fc domains; also called Q2

Legend:
FcγRI = biological target: T1, FcγRI (UniProt P12314 16-374, limits assumed); assay: cell-based TR-FRET competition assay (CISBIO kit), FcγRI cells
T1 construct: whole, on cells; also called CD64
Experimental: (§1) A cell-based binding assay was utilized to confirm that the amino acid modifications at positions I253, e.g., I253A, and R292, e.g., R292P, were specific to the intended receptors, e.g., reduced binding affinity to the FcRn receptor and FcγRIIb receptor, respectively. Relative binding of Fc constructs and controls to Fc gamma receptors (FcγRs) was measured using cell-based homogeneous time-resolved fluorescence resonance energy transfer (TR-FRET) competition assays (CISBIO®) kits for FcγRI, FcγRIIa H131, FcγRIIb, and FcγRIIIa V158. Assay reagents were prepared according to the manufacturer's instructions. A 10-point, 3-fold serial dilution series, plus one blank per sample, was generated using an automated liquid handler (Freedom EVOware 150, TECAN®). Assay plates were read on a PHERAstar fluorescent reader (BMG Labtech GmbH) at 665 and 620 nm. An IgG1 sample was used as a control.

FcγRIIIa V158 = biological target: T2, FcγRIIIa V158 (UniProt P08637 17-254, limits assumed); assay: cell-based TR-FRET competition assay (CISBIO kit), FcγRIIIa V158 cells
T2 construct: whole, on cells; V158 is the allotype as printed (mature numbering); also called CD16a
Experimental: as §1

Recombinant human FcRn = biological target: T3, Recombinant human FcRn (human, UniProt P55899 24-297; P61769 21-119, limits assumed); assay: SPR at pH 6.0; human FcRn in solution over Fc construct captured by goat anti-human IgG
T3 construct: also called neonatal Fc receptor
Source text: To assess the impact of the amino acid modifications at position I253, e.g., I253A, and R292, e.g., R292P, on FcRn binding a surface plasmon resonance (SPR) binding experiment was designed to measure the affinity and normalized binding level of solution-phase human FcRn to sensor-bound Fc constructs at pH 6.0. A goat anti-human IgG was immobilized on reference and test sensor surfaces using amine coupling chemistry. Fc constructs were captured on the test sensor surface. Recombinant human FcRn was flowed over the sensor surface in a dilution series with a top concentration of 1.0 μM. The sensor surface was regenerated at the end of each cycle with 10 mM glycine pH 1.7. Double-reference subtracted sensorgrams were subjected to equilibrium binding analysis; the maximum binding level (RMax) and the equilibrium dissociation constant (KD) were estimated. The normalized maximum binding level was calculated by dividing the RMax by the FC-construct capture level. Construct 16 was captured at the same level as construct 4, […] (FIG. 20).

T3 sequence (P55899 24-297 limits assumed, chain 1 of 2): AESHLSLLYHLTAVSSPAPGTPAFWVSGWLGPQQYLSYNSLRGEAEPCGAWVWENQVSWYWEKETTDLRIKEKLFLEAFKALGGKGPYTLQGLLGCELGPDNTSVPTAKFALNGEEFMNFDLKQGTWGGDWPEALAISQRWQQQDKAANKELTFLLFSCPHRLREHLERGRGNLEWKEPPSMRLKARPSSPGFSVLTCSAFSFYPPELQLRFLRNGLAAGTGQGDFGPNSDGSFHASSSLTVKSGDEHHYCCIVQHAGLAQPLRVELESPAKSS
T3 sequence (P61769 21-119 limits assumed, chain 2 of 2): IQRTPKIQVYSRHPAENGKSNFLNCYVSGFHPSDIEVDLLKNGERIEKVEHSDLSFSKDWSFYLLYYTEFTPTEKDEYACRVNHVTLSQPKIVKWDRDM
T2 sequence (P08637 17-254 F176V limits assumed): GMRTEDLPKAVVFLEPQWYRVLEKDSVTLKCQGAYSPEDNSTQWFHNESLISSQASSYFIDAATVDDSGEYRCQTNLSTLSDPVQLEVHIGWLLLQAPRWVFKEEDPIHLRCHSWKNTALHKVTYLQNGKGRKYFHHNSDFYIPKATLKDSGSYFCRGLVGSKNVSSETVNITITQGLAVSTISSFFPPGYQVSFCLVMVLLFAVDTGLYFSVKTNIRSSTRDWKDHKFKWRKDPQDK
T1 sequence (P12314 16-374 limits assumed): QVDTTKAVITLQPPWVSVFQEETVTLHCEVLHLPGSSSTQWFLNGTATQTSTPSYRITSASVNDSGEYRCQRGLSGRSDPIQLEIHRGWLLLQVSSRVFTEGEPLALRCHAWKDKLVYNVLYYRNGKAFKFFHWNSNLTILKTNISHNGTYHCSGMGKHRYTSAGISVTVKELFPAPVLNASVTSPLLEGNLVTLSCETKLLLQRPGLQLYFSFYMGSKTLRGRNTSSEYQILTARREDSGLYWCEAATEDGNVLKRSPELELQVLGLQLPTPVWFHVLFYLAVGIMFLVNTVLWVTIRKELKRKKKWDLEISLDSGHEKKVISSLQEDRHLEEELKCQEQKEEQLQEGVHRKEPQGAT

Binder	binding result (FcγRI)	binding result (FcγRIIIa V158)	binding result (Recombinant human FcRn)
B1	binds	binds	–
B2	–	–	no binding (tested: top concentration of 1.0 µM)
